In test [1] the target is wild-type LFA-1 (αL/β2 complex) (human) (UniProt P05107). The test can be described thus: K562 (+CBRLFA-1/2) cell adhesion to immobilized ICAM-1.
Test [2] addresses LFA-1 high affinity open mutant K287C/K294C (αL K287C/K294C with β2) (human) (UniProt P05107). The test can be described thus: flow cytometry, K562; normalised to TS1/22. A general note: A flow cytometer gives signals particle by particle.
Test [3] has the same target. The test can be described thus: K562 cell adhesion to immobilized ICAM-1.
Test [4] has the same target. The test can be described thus: flow cytometry on transfectants.
Test [5] concerns the target wild-type LFA-1 (αL/β2 complex) (human) (UniProt P05107). The test can be described thus: cell adhesion to immobilized ICAM-1.
Test [6] addresses isolated mutant K287C/K294C αL I-domain (V130-A338) expressed on K562 cells by the PDGFR transmembrane domain (human) (UniProt P20701). The test can be described thus: flow cytometry.
In test [7] the target is LFA-1 high affinity open mutant K287C/K294C (αL K287C/K294C with β2) (human) (UniProt P05107). The test can be described thus: 293T cell adhesion to immobilized ICAM-1.
Test [8] deals with wild-type LFA-1 (αL/β2 complex) (human) (UniProt P05107). The test can be described thus: 293T cell adhesion to immobilized ICAM-1.
For test [9], the target named is LFA-1 low affinity closed mutant L289C/K294C (αL L289C/K294C with β2) (human) (UniProt P05107). The test can be described thus: flow cytometry, K562; normalised to TS2/4.
Test [10] concerns the target LFA-1 high affinity open mutant K287C/K294C (αL K287C/K294C with β2) (human) (UniProt P05107). The test can be described thus: flow cytometry, K562; normalised to TS2/4.
The target in test [11] is LFA-1 low affinity closed mutant L289C/K294C (αL L289C/K294C with β2) (human) (UniProt P05107). The test can be described thus: flow cytometry, 293T; normalised to TS2/4.
Test [12] concerns the target LFA-1 single cysteine substitution mutant K294C (human) (UniProt P05107). The test can be described thus: flow cytometry, 293T; normalised to TS2/4.
Test [13] concerns the target LFA-1 high affinity open mutant K287C/K294C (αL K287C/K294C with β2) (human) (UniProt P05107). The test can be described thus: flow cytometry, 293T; normalised to TS2/4.
Test [14] concerns the target LFA-1 single cysteine substitution mutant K287C (human) (UniProt P05107). The test can be described thus: flow cytometry, 293T; normalised to TS2/4.
The target in test [15] is LFA-1 single cysteine substitution mutant L289C (human) (UniProt P05107). The test can be described thus: flow cytometry, 293T; normalised to TS2/4.

Chain of isolated mutant K287C/K294C αL I-domain (V130-A338) expressed on K562 cells by the PDGFR transmembrane domain (human) (P20701 155-363 K312C/K319C limits assumed, form in doubt): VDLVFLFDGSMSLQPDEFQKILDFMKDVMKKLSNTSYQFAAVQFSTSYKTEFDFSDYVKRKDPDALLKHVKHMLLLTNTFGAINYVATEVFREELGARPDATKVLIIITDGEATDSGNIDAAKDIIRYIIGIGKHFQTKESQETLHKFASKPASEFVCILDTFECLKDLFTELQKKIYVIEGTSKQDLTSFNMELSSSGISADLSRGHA

Turning to monoclonal antibody CBRLFA-1/9, the % inhibition came out at 97.8% in test [1] and 3.6% in test [3]. Further, the % wild-type binding in test [2] came out at 84.7%.

In test [4], monoclonal antibody CBRLFA-1/1 displayed a % of wild-type binding of 40 to 50%. In addition, the % inhibition is 94.7% in [1]; 2.85% in test [3]; over 90% in [5]; 9.03% in test [7]; 92.5% in test [8]. The same substance returned a % of binding to the wild-type I-domain in [6] of 80%. Besides, the % wild-type binding worked out at 118% in [9]; 55.5% in [10]; 95.9% in test [11]; 89.4% in [12]; 43.6% in test [13]; 86.1% in test [14]. This substance also displayed a % wild-type binding in test [15] of 93.3%.

The % inhibition is the change of the read-out against control, counted positive when it falls. A higher % inhibition goes with a strong effect.

The values above are taken from US20020123614A1.
